Bridge positions count the residues as written; N and C are the ends. Square brackets hold non-standard residues; d marks the D form. * marks the point of attachment. NMeW = CN[C@@H](Cc1c[nH]c2ccccc12)C(=O)O; Isovaleryl = CC(C)CC(=O)*; Sar = CNCC(=O)O

Consider 40 molecules from patent publication US20170313754A1 (PROTAGONIST THERAPEUTICS, published 2017).

For the test, the target named is T1, human ferroportin (SLC40A1) fused in frame with GFP, stably expressed in HEK293 cells (human, UniProt Q9NP59 1-571).
T1 sequence (looked up): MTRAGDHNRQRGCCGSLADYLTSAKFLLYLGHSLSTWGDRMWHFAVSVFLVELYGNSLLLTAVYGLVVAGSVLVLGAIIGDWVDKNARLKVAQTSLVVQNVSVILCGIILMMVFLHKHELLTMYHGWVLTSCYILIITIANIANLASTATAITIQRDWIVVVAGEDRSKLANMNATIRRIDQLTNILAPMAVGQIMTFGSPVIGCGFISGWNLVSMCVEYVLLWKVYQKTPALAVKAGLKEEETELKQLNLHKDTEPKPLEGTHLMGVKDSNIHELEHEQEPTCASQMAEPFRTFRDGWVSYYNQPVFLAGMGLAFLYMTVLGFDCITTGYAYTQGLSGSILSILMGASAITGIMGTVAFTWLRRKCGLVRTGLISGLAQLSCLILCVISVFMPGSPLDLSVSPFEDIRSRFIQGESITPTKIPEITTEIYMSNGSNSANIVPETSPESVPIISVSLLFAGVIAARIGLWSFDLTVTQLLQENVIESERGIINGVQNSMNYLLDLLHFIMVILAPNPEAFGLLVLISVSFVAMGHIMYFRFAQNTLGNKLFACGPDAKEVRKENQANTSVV
The experiment in a line: cell-based or functional assay.

B1: Hy-DTHICIAIF-NH2 (peptide)
peptide: H-DTHICIAIF-NH2
On to B1, for which the “Potency EC50 (nM), ferroportin-GFP internalization/degradation” value is over 10000 nM.

B2: Isovaleric acid-DTHFPCIIFEPRSKEWVCK-NH2 (peptide)
peptide: Isovaleryl-DTHFPCIIFEPRSKEWVCK-NH2
modifications: disulfide 6-18 (inferred)
B2: the “Potency EC50 (nM), ferroportin-GFP internalization/degradation” value stood at 19 nM.

B3: Hy-DTHFPCIIFKC-NH2 (peptide)
peptide: H-DTHFPCIIFKC-NH2
modifications: disulfide 6-11 (inferred)
For the molecule B3, the “Potency EC50 (nM), ferroportin-GFP internalization/degradation” value is 6400 nM.

B4: Hy-DTHFPCRIFGPRSRGWVCK-NH2 (peptide)
peptide: H-DTHFPCRIFGPRSRGWVCK-NH2
modifications: disulfide 6-18 (inferred)
For B4, the “Potency EC50 (nM), ferroportin-GFP internalization/degradation” value was over 1000 nM.

B5: Hy-DTHFPCIIT-NH2 (peptide)
peptide: H-DTHFPCIIT-NH2
As to B5, the “Potency: percent at the stated concentration, ferroportin-GFP internalization/degradation” value worked out at 23 % at 1 uM.

B6: Hy-DTHFPCIIFGPRSRGHVCK-NH2 (peptide)
peptide: H-DTHFPCIIFGPRSRGHVCK-NH2
modifications: not fully specified (bridges); printed as Hy-DTHFPCIIFGPRSRGHVCK-NH2; cysteine pairing not given here
In the case of B6, the “Potency EC50 (nM), ferroportin-GFP internalization/degradation” value is over 1000 nM.

B7: Hy-DTHFPCIIY-NH2 (peptide)
peptide: H-DTHFPCIIY-NH2
Regarding B7, the “Potency: percent at the stated concentration, ferroportin-GFP internalization/degradation” value is 75 % at 10 uM.

B8: Hy-DPHFPCIIF-NH2 (peptide)
peptide: H-DPHFPCIIF-NH2
Take B8: the “Potency: percent at the stated concentration, ferroportin-GFP internalization/degradation” value came out at 64 % at 10 uM.

B9: Hy-DTHKPCIIF-NH2 (peptide)
peptide: H-DTHKPCIIF-NH2
With B9, the “Potency: percent at the stated concentration, ferroportin-GFP internalization/degradation” value was 45 % at 10 uM.

B10: Hy-ATHFPCIIF-NH2 (peptide)
peptide: H-ATHFPCIIF-NH2
Consider B10, for which the “Potency EC50 (nM), ferroportin-GFP internalization/degradation” value was over 1000 nM.

B11: Hy-DTHFPIICI-NH2 (peptide)
peptide: H-DTHFPIICI-NH2
As for B11, the “Potency EC50 (nM), ferroportin-GFP internalization/degradation” value is over 10000 nM.

B12: Isovaleric acid-DTHFPCIKFEPRSKEWVCK-OH (peptide)
peptide: Isovaleryl-DTHFPCIKFEPRSKEWVCK-OH
modifications: not fully specified (bridges); cysteine pairing not given here
For B12, the “Potency EC50 (nM), ferroportin-GFP internalization/degradation” value is 46 nM.

B13: Hy-DTHFPCILY-NH2 (peptide)
peptide: H-DTHFPCILY-NH2
Regarding B13, the “Potency: percent at the stated concentration, ferroportin-GFP internalization/degradation” value is 85 % at 1 uM.

B14: Hy-DTHFPCIFGPRSKGWVC-NH2 (peptide)
peptide: H-DTHFPCIFGPRSKGWVC-NH2
modifications: disulfide 6-17 (inferred)
Take B14: the “Potency EC50 (nM), ferroportin-GFP internalization/degradation” value is over 1000 nM.

B15: Isovaleric acid-DTHFPCIKFEPHSK-[Sarc]-CK-NH2 (peptide)
peptide: Isovaleryl-DTHFPCIKFEPHSK[Sar]CK-NH2
modifications: not fully specified (bridges); cysteine pairing not given here
On to B15, for which the “Potency EC50 (nM), ferroportin-GFP internalization/degradation” value is 28 nM.

B16: Hy-DTHCPIAIF-NH2 (peptide)
peptide: H-DTHCPIAIF-NH2
B16: the “Potency EC50 (nM), ferroportin-GFP internalization/degradation” value was over 10000 nM.

B17: Hy-DTHFVCIIF-NH2 (peptide)
peptide: H-DTHFVCIIF-NH2
Turning to B17, the “Potency: percent at the stated concentration, ferroportin-GFP internalization/degradation” value came out at 50 % at 10 uM.

B18: Isovaleric acid-DTHFPCIKFEPRSKEWVCK-NH2 (peptide)
peptide: Isovaleryl-DTHFPCIKFEPRSKEWVCK-NH2
modifications: disulfide 6-18 (inferred)
As to B18, the “Potency EC50 (nM), ferroportin-GFP internalization/degradation” value turned out to be 20 nM.

B19: Isovaleric acid-DTHFPCIIF-[Sarc]-PRSKG-[N-MeTrp]-VC-NH2 (peptide)
peptide: DTHFPCIIFXPRSKGWVC
modifications: N-terminal isovaleric acid; Sarc at position 10; N-MeTrp at position 16; C-terminal amide
Regarding B19, the “Potency EC50 (nM), ferroportin-GFP internalization/degradation” value came to 10 nM.

B20: Isovaleric acid-DTHFPCIIFEPRSKFWVCK-NH2 (peptide)
peptide: Isovaleryl-DTHFPCIIFEPRSKFWVCK-NH2
modifications: disulfide 6-18 (inferred)
Regarding B20, the “Potency EC50 (nM), ferroportin-GFP internalization/degradation” value worked out at 10 nM.

B21: Hy-ADHFPCIIF-NH2 (peptide)
peptide: H-ADHFPCIIF-NH2
Consider B21, for which the “Potency EC50 (nM), ferroportin-GFP internalization/degradation” value was over 1000 nM.

B22: Hy-DTHFPCIEY-NH2 (peptide)
peptide: H-DTHFPCIEY-NH2
As to B22, the “Potency: percent at the stated concentration, ferroportin-GFP internalization/degradation” value was 8 % at 1 uM.

B23: Isovaleric acid-DTHFPCIIFGPRSKG-[N-MeTrp]-VC-NH2 (peptide)
peptide: Isovaleryl-DTHFPCIIFGPRSKG[NMeW]VC-NH2
modifications: disulfide 6-18 (inferred)
With B23, the “Potency EC50 (nM), ferroportin-GFP internalization/degradation” value stood at 32 nM.

B24: Hy-DTHFP-[(D)Cys]-IIFGPRSKGWVA-[(D)Cys]-NH2 (peptide)
peptide: H-DTHFP[dC]IIFGPRSKGWVA[dC]-NH2
modifications: disulfide 6-19 (inferred)
For B24, the “Potency EC50 (nM), ferroportin-GFP internalization/degradation” value was over 10000 nM.

B25: Isovaleric acid-DTHFPCIIFEPRSKHWVCK-NH2 (peptide)
peptide: Isovaleryl-DTHFPCIIFEPRSKHWVCK-NH2
modifications: disulfide 6-18 (inferred)
As for B25, the “Potency EC50 (nM), ferroportin-GFP internalization/degradation” value was 15 nM.

B26: Hy-DTHFPCIIFGPRSKGWAVCYW-NH2 (peptide)
peptide: H-DTHFPCIIFGPRSKGWAVCYW-NH2
modifications: not fully specified (bridges); printed as Hy-DTHFPCIIFGPRSKGWAVCYW-NH2; cysteine pairing not given here
For B26, the “Potency EC50 (nM), ferroportin-GFP internalization/degradation” value was found to be 197 nM.

B27: Isovaleric acid-DTHFPCIIF-[Sarc]-PHSKG-[N-MeTrp]-VC-NH2 (peptide)
peptide: DTHFPCIIFXPHSKGWVC
modifications: N-terminal isovaleric acid; Sarc at position 10; N-MeTrp at position 16; C-terminal amide
Turning to B27, the “Potency EC50 (nM), ferroportin-GFP internalization/degradation” value came to 9 nM.

B28: Hy-DTHFPCIIFAA-NH2 (peptide)
peptide: H-DTHFPCIIFAA-NH2
Consider B28, for which the “Potency: percent at the stated concentration, ferroportin-GFP internalization/degradation” value was 59 % at 1 uM.

B29: Isovaleric acid-DTHFPCKIFGPRSKGWVCK-NH2 (peptide)
peptide: Isovaleryl-DTHFPCKIFGPRSKGWVCK-NH2
modifications: disulfide 6-18 (inferred)
Take B29: the “Potency EC50 (nM), ferroportin-GFP internalization/degradation” value is 86 nM.

B30: Isovaleric acid-DTHFPCRRFGPRSKGWVCK-NH2 (peptide)
peptide: Isovaleryl-DTHFPCRRFGPRSKGWVCK-NH2
modifications: disulfide 6-18 (inferred)
Consider B30, for which the “Potency EC50 (nM), ferroportin-GFP internalization/degradation” value is over 1000 nM.

B31: Hy-DTHFPCIIFAC-NH2 (peptide)
peptide: H-DTHFPCIIFAC-NH2
modifications: disulfide 6-11 (inferred)
For B31, the “Potency EC50 (nM), ferroportin-GFP internalization/degradation” value was over 1000 nM.

B32: Isovaleric acid-DTHFPCIIFEPRSKLWVCK-NH2 (peptide)
peptide: Isovaleryl-DTHFPCIIFEPRSKLWVCK-NH2
modifications: disulfide 6-18 (inferred)
With B32, the “Potency EC50 (nM), ferroportin-GFP internalization/degradation” value amounted to 7 nM.

B33: Isovaleric acid-DTHFPCKIFGPRSKGWECK-NH2 (peptide)
peptide: Isovaleryl-DTHFPCKIFGPRSKGWECK-NH2
modifications: disulfide 6-18 (inferred)
With B33, the “Potency EC50 (nM), ferroportin-GFP internalization/degradation” value is 163 nM.

B34: Isovaleric acid-DTHFPCIKFKPHSKEWVCE-NH2 (peptide)
peptide: Isovaleryl-DTHFPCIKFKPHSKEWVCE-NH2
modifications: disulfide 6-18 (inferred)
As to B34, the “Potency EC50 (nM), ferroportin-GFP internalization/degradation” value worked out at 46 nM.

B35: Hy-DTHFPCIIFGPRSKGWNCK-NH2 (peptide)
peptide: H-DTHFPCIIFGPRSKGWNCK-NH2
modifications: not fully specified (bridges); printed as Hy-DTHFPCIIFGPRSKGWNCK-NH2; cysteine pairing not given here
As to B35, the “Potency EC50 (nM), ferroportin-GFP internalization/degradation” value is over 1000 nM.

B36: Hy-DTHFPCIIFGPRSKGWVAC-NH2 (peptide)
peptide: H-DTHFPCIIFGPRSKGWVAC-NH2
modifications: not fully specified (bridges); printed as Hy-DTHFPCIIFGPRSKGWVAC-NH2; cysteine pairing not given here
For the molecule B36, the “Potency EC50 (nM), ferroportin-GFP internalization/degradation” value came out at 281 nM.

B37: Hy-DTHFPIAICI-NH2 (peptide)
peptide: H-DTHFPIAICI-NH2
Regarding B37, the “Potency EC50 (nM), ferroportin-GFP internalization/degradation” value was over 10000 nM.

B38: Hy-DTHFPCIIFGPRSKGWVACY-NH2 (peptide)
peptide: H-DTHFPCIIFGPRSKGWVACY-NH2
modifications: not fully specified (bridges); printed as Hy-DTHFPCIIFGPRSKGWVACY-NH2; cysteine pairing not given here
Take B38: the “Potency EC50 (nM), ferroportin-GFP internalization/degradation” value was over 10000 nM.

B39: Isovaleric acid-DTHFPCIKFEPRSKLWVCK-NH2 (peptide)
peptide: Isovaleryl-DTHFPCIKFEPRSKLWVCK-NH2
modifications: disulfide 6-18 (inferred)
Consider B39, for which the “Potency EC50 (nM), ferroportin-GFP internalization/degradation” value was 9 nM.

B40: Hy-DTHFPICIFGPHRSKGWVCM-NH2 (peptide)
peptide: H-DTHFPICIFGPHRSKGWVCM-NH2
modifications: disulfide 7-19 (inferred)
B40: the “Potency EC50 (nM), ferroportin-GFP internalization/degradation” value amounted to 149 nM.
